Blank lines part the entries; values can stand above or below the binder they belong to.
Legend:
Assay in all cases: SPR (Biacore T200), antibody captured on Protein A chip, response at 200 nM antigen
[1] = molecular target: T1, human PD-L2/B7-DC protein, with His tag (human, UniProt Q9BQ51 20-219, limits assumed)
T1 construct: Bought protein
T1 sequence (looked up): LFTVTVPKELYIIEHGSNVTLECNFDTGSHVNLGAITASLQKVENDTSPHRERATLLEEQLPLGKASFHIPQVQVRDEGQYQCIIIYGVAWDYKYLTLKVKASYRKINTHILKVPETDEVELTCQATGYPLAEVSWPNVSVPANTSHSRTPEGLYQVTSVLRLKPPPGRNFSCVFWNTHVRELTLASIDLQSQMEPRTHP
Protocol: (§1) The anti-human B7-H3 antibodies were tested for their binding capability to B7 family proteins by SPR using Biacore T200 biosensor (Biacore, US) provided with a pre-fixed Protein A sensor chip.
(§2) The dissociation was monitored for 600 sec. The data was analyzed using Biacore 8k evaluation software version 3.0, to obtain the binding responses, and the protein concentration-binding response curves were plotted, to determine the cross-reaction of the anti-human B7-H3 antibodies to the B7 family proteins.

[2] = molecular target: T2, human PD-L1/B7-H1 protein, with His tag (human, UniProt Q9NZQ7 19-238)
T2 construct: Bought protein
Protocol: as §1, §2

[3] = molecular target: T3, human B7-H2/ICOSLG protein, with His tag (human, UniProt O75144 19-258, limits assumed)
T3 construct: Bought protein
T3 sequence (looked up): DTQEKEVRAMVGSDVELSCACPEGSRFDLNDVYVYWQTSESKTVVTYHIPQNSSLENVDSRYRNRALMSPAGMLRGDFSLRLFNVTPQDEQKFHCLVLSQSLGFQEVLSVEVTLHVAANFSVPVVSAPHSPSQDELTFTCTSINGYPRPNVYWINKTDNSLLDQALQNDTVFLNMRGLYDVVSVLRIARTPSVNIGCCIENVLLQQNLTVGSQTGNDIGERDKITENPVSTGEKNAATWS
Protocol: as §1, §2

[4] = molecular target: T4, human B7-H4 protein, with His tag (MALS verified) (human, UniProt Q7Z7D3 29-258, limits assumed)
T4 construct: Bought protein
T4 sequence (looked up): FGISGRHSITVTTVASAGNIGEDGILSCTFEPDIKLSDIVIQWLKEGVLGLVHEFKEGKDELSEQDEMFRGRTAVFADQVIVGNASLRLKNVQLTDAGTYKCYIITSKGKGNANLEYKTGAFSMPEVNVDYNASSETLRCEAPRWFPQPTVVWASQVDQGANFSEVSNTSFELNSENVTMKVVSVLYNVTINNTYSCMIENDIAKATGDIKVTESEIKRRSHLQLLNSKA
Protocol: as §1, §2

[5] = molecular target: T5, human B7-H5/Gi24/VISTA protein, with His tag (MALS verified) (human, UniProt Q9H7M9 33-194)
T5 construct: Bought protein
T5 sequence (looked up): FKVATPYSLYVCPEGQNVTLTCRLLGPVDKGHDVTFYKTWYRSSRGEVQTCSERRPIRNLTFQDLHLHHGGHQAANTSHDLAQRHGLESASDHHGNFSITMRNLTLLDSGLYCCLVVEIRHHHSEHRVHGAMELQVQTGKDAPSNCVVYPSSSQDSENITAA
Protocol: as §1, §2

[6] = molecular target: T6, human B7-H6/NCR3LG1 protein, with His tag (human, UniProt Q68D85 25-262, limits assumed)
T6 construct: Bought protein
T6 sequence (looked up): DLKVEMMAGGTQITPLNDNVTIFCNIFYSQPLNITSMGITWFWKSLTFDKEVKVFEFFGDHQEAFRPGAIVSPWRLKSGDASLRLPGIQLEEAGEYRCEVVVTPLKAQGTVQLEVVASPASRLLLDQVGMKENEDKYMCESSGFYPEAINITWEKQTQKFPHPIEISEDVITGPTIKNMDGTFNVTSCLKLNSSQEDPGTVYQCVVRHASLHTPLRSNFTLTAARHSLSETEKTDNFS
Protocol: as §1, §2

[7] = molecular target: T7, human B7-H7/HHLA2 protein, with His tag (MALS verified) (human, UniProt Q9UM44 23-344, limits assumed)
T7 construct: Bought protein
T7 sequence (looked up): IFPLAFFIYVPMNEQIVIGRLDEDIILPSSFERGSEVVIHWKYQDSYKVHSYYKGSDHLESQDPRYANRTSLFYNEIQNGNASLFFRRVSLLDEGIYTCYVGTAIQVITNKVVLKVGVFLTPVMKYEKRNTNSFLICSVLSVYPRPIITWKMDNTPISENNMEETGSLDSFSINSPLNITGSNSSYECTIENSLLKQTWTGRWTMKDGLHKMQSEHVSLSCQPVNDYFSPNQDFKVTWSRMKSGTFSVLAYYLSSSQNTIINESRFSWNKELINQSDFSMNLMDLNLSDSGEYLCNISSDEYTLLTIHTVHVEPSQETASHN
Protocol: as §1, §2

[8] = molecular target: T8, recombinant human B7-H3 (4Ig) protein, with His tag (human, UniProt Q5ZPR3 29-461, limits assumed)
T8 construct: Bought protein; also called human B7-H3 (4Ig)/B7-H3b protein
T8 sequence (looked up): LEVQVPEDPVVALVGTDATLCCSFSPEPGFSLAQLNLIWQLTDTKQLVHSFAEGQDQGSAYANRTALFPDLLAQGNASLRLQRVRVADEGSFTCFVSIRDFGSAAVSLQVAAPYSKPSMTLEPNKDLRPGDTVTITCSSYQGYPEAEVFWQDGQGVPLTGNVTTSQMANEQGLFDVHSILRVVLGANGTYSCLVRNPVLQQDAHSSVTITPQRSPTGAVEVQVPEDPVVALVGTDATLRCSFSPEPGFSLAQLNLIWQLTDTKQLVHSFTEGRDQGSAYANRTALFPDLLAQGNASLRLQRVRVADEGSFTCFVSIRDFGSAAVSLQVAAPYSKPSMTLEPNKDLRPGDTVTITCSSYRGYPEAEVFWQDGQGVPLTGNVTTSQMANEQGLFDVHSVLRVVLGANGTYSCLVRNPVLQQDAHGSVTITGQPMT
Protocol: as §1, §2

T2 sequence (Q9NZQ7 19-238 limits assumed): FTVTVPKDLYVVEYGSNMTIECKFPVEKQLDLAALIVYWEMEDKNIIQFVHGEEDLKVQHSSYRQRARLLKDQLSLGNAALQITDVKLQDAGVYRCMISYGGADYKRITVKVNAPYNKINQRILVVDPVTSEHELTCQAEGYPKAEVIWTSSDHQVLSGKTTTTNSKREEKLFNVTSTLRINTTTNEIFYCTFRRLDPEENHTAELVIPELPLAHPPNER

Response (RU) [1]: -1.2 RU
Response (RU) [2]: -2.2 RU
Response (RU) [3]: -2 RU
Response (RU) [4]: -2 RU
Response (RU) [5]: -1.8 RU
Response (RU) [6]: -2.2 RU
Response (RU) [7]: -1.3 RU
Response (RU) [8]: 25.7 RU
B1: Enoblituzumab (antibody, human IgG1, kappa, V domains shown)
VH: EVQLVESGGGLVQPGGSLRLSCAASGFTFSSFGMHWVRQAPGKGLEWVAYISSDSSAIYYADTVKGRFTISRDNAKNSLYLQMNSLRDEDTAVYYCGRGRENIYYGSRLDYWGQGTTVTVSS
VL: DIQLTQSPSFLSASVGDRVTITCKASQNVDTNVAWYQQKPGKAPKALIYSASYRYSGVPSRFSGSGSGTDFTLTISSLQPEDFATYYCQQYNNYPFTFGQGTKLEIKR
notes: Humanized anti-B7-H3 antibody of MacroGenics with optimised Fc, used as the positive control; also called AbEno; enoblituzumab-IgG1-Mut

Response (RU) [1]: -0.2 RU
Response (RU) [2]: 0.3 RU
Response (RU) [3]: -0.1 RU
Response (RU) [4]: 0.3 RU
Response (RU) [5]: 0.6 RU
Response (RU) [6]: -0.5 RU
Response (RU) [7]: 0.2 RU
Response (RU) [8]: 41.9 RU
B2: 10D7 (antibody, human IgG1, kappa, V domains shown)
VH: QVQLVQSGPGLVKPSETLSLTCTVSGGSISRSSYYWGWIRQPPGKGLEWIGNIFYAGSTYYNPSLKSRVTISVDTSKNQFSLKLSSVTAADTAVYYCARRITGTTGWFDPWGQGTLVTVSS
VL: DIQLTQSPSSLSASVGDRVTITCRASQGIRNDLGWYQQKPGKAPKLLIYAASTLQSGVPSRFSGSGSGTDFTLTISSLQPEDFATYYCLQDYNYPRTFGQGTKVEIKR
notes: also called 10D7-WT; Ab10D7

Response (RU) [1]: -0.2 RU
Response (RU) [2]: 1 RU
Response (RU) [3]: 0.9 RU
Response (RU) [4]: 0.5 RU
Response (RU) [5]: 0.9 RU
Response (RU) [6]: -0.2 RU
Response (RU) [7]: 1.3 RU
Response (RU) [8]: 34.8 RU
B3: 6B5 (antibody, human IgG1, kappa, V domains shown)
VH: QVQLVESGPGLVKPSQTLSLTCTVSDGSISSGGYYWSWIRQHPGKGLEWIGYIYYSGGTYYSPSLKSRVTISVDTSKNQFSLKLTSVTAADTAVYYCARRAGYSSSFDSWGQGILVTVSS
VL: EIVLTQSPLSLPVTPGEPASISCRSSQSLLYSNGYTYLDWYLQKPGQSPQFLIYLGFNRASGVPDRFSGSGSGTDFTLKISRVEAEDVGVYYCMQGLQTPYTFGQGTKLEIKR
notes: also called 6B5-WT; Ab6B5

Response (RU) [1]: 0 RU
Response (RU) [2]: 0.5 RU
Response (RU) [3]: 0.9 RU
Response (RU) [4]: 0.3 RU
Response (RU) [5]: 0.6 RU
Response (RU) [6]: -0.4 RU
Response (RU) [7]: 1.7 RU
Response (RU) [8]: 32.5 RU
B4: 10F5 (antibody, human IgG1, kappa, V domains shown)
VH: QVQLVQSGAEVKKPGSSVKVSCKASGGTFSSQAISWVRQAPGQGLEWMGRIIPMLGIGDYAQSFQGRVTITADKSTSTAYLEVSSLGSEDTAVYYCAREGIAALGTNYYYGMDVWGQGTAVTVSS
VL: EIVMTQSPSSVSASVGDRVTITCRASQGISRWLAWYQQKPGKAPKLLIYVASSLQSGVPSRFSGSGSGTDFTLTISSLQPEDFATYYCQQANSFPFTFGPGTKVDIRR
notes: also called Ab10F5

From patent US20260125477A1 (BEIJING MABWORKS BIOTECH, published 2026)
